Laboratory results reported in patent publication US20230038638A1, “COMPLEMENT FACTOR I-RELATED COMPOSITIONS AND METHODS” (published 2023).
Changes are numbered by the printed parent chain.

Assays:
[1] = target: T1, C4b (human, UniProt P0C0L4)
T1 sequence: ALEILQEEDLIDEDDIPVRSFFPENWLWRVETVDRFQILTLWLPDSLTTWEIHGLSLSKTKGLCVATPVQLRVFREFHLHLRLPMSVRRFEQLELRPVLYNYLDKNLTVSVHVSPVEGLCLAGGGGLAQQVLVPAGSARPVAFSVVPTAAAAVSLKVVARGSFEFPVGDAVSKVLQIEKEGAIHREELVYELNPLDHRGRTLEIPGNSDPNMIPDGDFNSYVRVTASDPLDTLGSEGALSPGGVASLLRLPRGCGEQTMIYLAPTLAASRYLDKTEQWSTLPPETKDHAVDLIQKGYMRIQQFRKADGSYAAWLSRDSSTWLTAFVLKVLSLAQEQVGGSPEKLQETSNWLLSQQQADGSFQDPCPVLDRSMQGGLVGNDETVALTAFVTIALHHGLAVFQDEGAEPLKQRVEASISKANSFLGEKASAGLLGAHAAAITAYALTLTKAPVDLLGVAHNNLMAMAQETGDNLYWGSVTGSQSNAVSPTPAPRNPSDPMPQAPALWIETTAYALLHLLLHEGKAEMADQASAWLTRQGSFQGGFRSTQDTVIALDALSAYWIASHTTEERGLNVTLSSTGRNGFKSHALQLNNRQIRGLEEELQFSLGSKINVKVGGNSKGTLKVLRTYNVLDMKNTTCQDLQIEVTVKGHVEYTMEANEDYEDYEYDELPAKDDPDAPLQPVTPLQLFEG

[2] = target: T2, human C4b (human) (UniProt P0C0L5)
T2 sequence: T1 sequence with A151T, D317G, P364L, C365S, L368I, D369H, N420S, V451A, L454R, S530A

[3] = target: soluble human C3b (human) (UniProt P01024)
[4] = target: T3, C3b (human, UniProt P01024)
[5] = target: T3, C3b; remark: listed apart in the source
[6] = target: soluble human C3b (human) (UniProt P01024); remark: listed apart in the source
[7] = target: T4, human C4b (human) (UniProt P0C0L4)
T4 sequence: T1 sequence

[8] = target: T3, C3b; remark: listed apart in the source
[9] = target: soluble human C3b (human) (UniProt P01024); remark: listed apart in the source
[10] = target: T4, human C4b (human); remark: listed apart in the source

CFI-HSA variant Y408L; E457G; N531G; P535G with hCR1; CCP15; CCP16; CCP17 C-terminal fusion (enzyme)
C4c No Cofactor EC50 (C4b cleavage, C4c ELISA) [1]: 97.7 nM

CFI-HSA variant Y20A (enzyme)
C4b Screen Ref Fold (fold vs CFI-HSA wild type) [2]: 0.14 | iC3b Screen Ref Fold (fold vs CFI-HSA wild type) [3]: 0.05 | C3b cleavage, % Activity [4]: 7%

CFI-HSA variant E457G; P535G with hCR1; CCP15; CCP16; CCP17 C-terminal fusion (enzyme)
C4c No Cofactor EC50 (C4b cleavage, C4c ELISA) [1]: 35.9 nM

CFI-HSA variant L307G (enzyme)
C4b Screen Ref Fold (fold vs CFI-HSA wild type) [2]: 2.85 | iC3b Screen Ref Fold (fold vs CFI-HSA wild type) [3]: 0.79 | C3b cleavage, % Activity [4]: 91% | C3b cleavage rate, kmut/kwt [5]: 1 | iC3b EC50 [6]: 39.2 nM | C4c EC50 (nM) [7]: 316 nM

CFI-HSA variant Y408L + N531G (enzyme)
C3b cleavage, % Activity [4]: 123% | C3b cleavage rate, kmut/kwt [5]: 3 | C3dg formation in activated human serum (TRIFMA), EC50 WT/EC50Variant [8]: 0.6

CFI-HSA variant D425R (enzyme)
C4b Screen Ref Fold (fold vs CFI-HSA wild type) [2]: 0.69 | iC3b Screen Ref Fold (fold vs CFI-HSA wild type) [3]: 1.46 | C3b cleavage, % Activity [4]: 104% | C3b cleavage rate, kmut/kwt [5]: 2 | C3dg formation in activated human serum (TRIFMA), EC50 WT/EC50Variant [8]: 4.2

CFI-HSA variant N531G; P535A with hCR1; CCP15; CCP16; CCP17 C-terminal fusion (enzyme)
C4c No Cofactor EC50 (C4b cleavage, C4c ELISA) [1]: 50.3 nM

CFI-HSA variant R557A (enzyme)
C4b Screen Ref Fold (fold relative to CFI-HSA wild type) [2]: 1.72 | C4b Screen Ref Fold (fold vs CFI-HSA wild type) [2]: 1.74 | iC3b Screen Ref Fold (fold relative to CFI-HSA wild type) [3]: -0.01 | iC3b Screen Ref Fold (fold vs CFI-HSA wild type) [3]: 0.04 | C3b cleavage, % Activity [4]: 21% | C3b cleavage rate, kmut/kwt [5]: 0 | iC3b EC50 [6]: > 500 nM | C4c EC50 (nM) [7]: 327 nM

CFI-HSA variant K326A + R327A (enzyme)
C3b cleavage, % Activity [4]: 58% | C3b cleavage rate, kmut/kwt [5]: 0

CFI-HSA variant P535G with hCR1; CCP15; CCP16; CCP17 C-terminal fusion (enzyme)
C4c No Cofactor EC50 (C4b cleavage, C4c ELISA) [1]: 160 nM

CFI-HSA (E457G; N531G variant) (enzyme)
Fold-decrease EC50 (iC3b) vs. CFI WT [9]: 3.86 fold

CFI-HSA variant E457G (enzyme)
C4b Screen Ref Fold (fold vs CFI-HSA wild type) [2]: 5.37 | iC3b Screen Ref Fold (fold vs CFI-HSA wild type) [3]: 1.58 | C3b cleavage rate, kmut/kwt [5]: 3 | iC3b EC50 [6]: 11.1 nM | C4c EC50 (nM) [7]: 138 nM

CFI-HSA variant N531G (enzyme)
C4b Screen Ref Fold (fold vs CFI-HSA wild type) [2]: 6.26 | iC3b Screen Ref Fold (fold vs CFI-HSA wild type) [3]: 2.1 | C3b cleavage rate, kmut/kwt [5]: 1 | iC3b EC50 [6]: 8.3 nM | C4c EC50 (nM) [7]: 58.4 nM

CFI-HSA variant N531A (enzyme)
C4b Screen Ref Fold (fold vs CFI-HSA wild type) [2]: 0.31 | iC3b Screen Ref Fold (fold vs CFI-HSA wild type) [3]: 1.21 | C3b cleavage rate, kmut/kwt [5]: 1 | iC3b EC50 [6]: 24.3 nM | C4c EC50 (nM) [7]: 278 nM

CFI-HSA variant K14A (enzyme)
C4b Screen Ref Fold (fold vs CFI-HSA wild type) [2]: 0.3 | iC3b Screen Ref Fold (fold vs CFI-HSA wild type) [3]: 0.73 | C3b cleavage, % Activity [4]: 93% | C4c EC50 (nM) [7]: 401 nM

CFI-HSA variant N531G with hCR1; CCP15; CCP16; CCP17 C-terminal fusion (enzyme)
C4c No Cofactor EC50 (C4b cleavage, C4c ELISA) [1]: 76.2 nM

CFI-HSA variant R35A (enzyme)
C4b Screen Ref Fold (fold vs CFI-HSA wild type) [2]: 0.06 | iC3b Screen Ref Fold (fold vs CFI-HSA wild type) [3]: 0.12 | C3b cleavage, % Activity [4]: 47%

CFI-HSA variant D425A (enzyme)
C4b Screen Ref Fold (fold vs CFI-HSA wild type) [2]: 2.71 | iC3b Screen Ref Fold (fold vs CFI-HSA wild type) [3]: 1.07 | C3b cleavage, % Activity [4]: 103% | C3b cleavage rate, kmut/kwt [5]: 1 | C3dg formation in activated human serum (TRIFMA), EC50 WT/EC50Variant [8]: 1.7

CFI-HSA variant Y20F (enzyme)
C4b Screen Ref Fold (fold vs CFI-HSA wild type) [2]: 0.27 | iC3b Screen Ref Fold (fold vs CFI-HSA wild type) [3]: 0.67 | C3b cleavage, % Activity [4]: 80%

CFI-HSA variant Y408L; N531G; P535G with hCR1; CCP15; CCP16; CCP17 C-terminal fusion (enzyme)
C4c No Cofactor EC50 (C4b cleavage, C4c ELISA) [1]: 50.1 nM

CFI-HSA variant Y408L; E457G; N531G with hCR1; CCP15; CCP16; CCP17 C-terminal fusion (enzyme)
C4c No Cofactor EC50 (C4b cleavage, C4c ELISA) [1]: 156 nM

CFI-HSA variant S250A + D425R (enzyme)
C3b cleavage rate, kmut/kwt [5]: 1

CFI-HSA (E416A; N531G variant) (enzyme)
Fold-decrease EC50 (iC3b) vs. CFI WT [9]: 3.67 fold

CFI-HSA variant Y408L; E457G; E461Q; R462K; N531G with hCR1; CCP15; CCP16; CCP17 C-terminal fusion (enzyme)
C4c No Cofactor EC50 (C4b cleavage, C4c ELISA) [1]: 106 nM

CFI-HSA variant Y408L (enzyme)
C4b Screen Ref Fold (fold vs CFI-HSA wild type) [2]: 1.46 | iC3b Screen Ref Fold (fold vs CFI-HSA wild type) [3]: 1.4 | C3b cleavage, % Activity [4]: 104% | C3b cleavage rate, kmut/kwt [5]: 1 | iC3b EC50 [6]: 21.3 nM | C4c EC50 (nM) [7]: > 1000 nM

CFI-HSA variant ΔC-term (Δ558-PFISQYNV (SEQ ID NO: 14)-565) (enzyme)
C4b Screen Ref Fold (fold vs CFI-HSA wild type) [2]: 0.11 | iC3b Screen Ref Fold (fold vs CFI-HSA wild type) [3]: 0.03 | C3b cleavage, % Activity [4]: 7%

CFI-HSA variant Y408L; E457G; R462K; F464Y; N531G with hCR1; CCP15; CCP16; CCP17 C-terminal fusion (enzyme)
C4c No Cofactor EC50 (C4b cleavage, C4c ELISA) [1]: 104 nM

CFI-HSA variant F29A (enzyme)
C4b Screen Ref Fold (fold vs CFI-HSA wild type) [2]: 0.17 | iC3b Screen Ref Fold (fold vs CFI-HSA wild type) [3]: 0.05 | C3b cleavage, % Activity [4]: 16%

CFI-HSA variant P535A (enzyme)
C4b Screen Ref Fold (fold vs CFI-HSA wild type) [2]: 1.86 | iC3b Screen Ref Fold (fold vs CFI-HSA wild type) [3]: 1.01 | C3b cleavage rate, kmut/kwt [5]: 1

CFI-HSA variant Y408L; N531G with hCR1; CCP15; CCP16; CCP17 C-terminal fusion (enzyme)
C4c No Cofactor EC50 (C4b cleavage, C4c ELISA) [1]: 57.1 nM

CFI-HSA variant 456-… (SEQ ID NO: 9)-465 --> … (SEQ ID NO: 10) (human trypsin autolysis loop swap) (enzyme)
C3b cleavage, % Activity [4]: 18% | C3b cleavage rate, kmut/kwt [5]: 0

CFI-HSA variant E457G + E461Q + R462K + F464Y (mouse CFI autolysis loop swap) (enzyme)
C3b cleavage rate, kmut/kwt [5]: 2

CFI-HSA variant Y20F + D425R (enzyme)
C3b cleavage rate, kmut/kwt [5]: 1

CFI-HSA variant E461Q (enzyme)
C4b Screen Ref Fold (fold vs CFI-HSA wild type) [2]: 5.47 | iC3b Screen Ref Fold (fold vs CFI-HSA wild type) [3]: 1.94 | C3b cleavage rate, kmut/kwt [5]: 2 | iC3b EC50 [6]: 12 nM | C4c EC50 (nM) [7]: 121 nM

CFI-HSA variant E38A + D425R (enzyme)
C3b cleavage rate, kmut/kwt [5]: 1

CFI-HSA (hCR1; CCP15; CCP16; CCP17 C-terminal fusion) (enzyme)
Fold-decrease EC50 (iC3b) vs. CFI WT [9]: 0.79 fold

CFI-HSA variant E457G; N531G; P535G with hCR1; CCP15; CCP16; CCP17 C-terminal fusion (enzyme)
C4c No Cofactor EC50 (C4b cleavage, C4c ELISA) [1]: 44.8 nM

CFI-HSA variant E38A (enzyme)
C4b Screen Ref Fold (fold vs CFI-HSA wild type) [2]: 0.09 | iC3b Screen Ref Fold (fold vs CFI-HSA wild type) [3]: 0.43 | C3b cleavage, % Activity [4]: 79%

CFI-HSA variant D425K (enzyme)
C4b Screen Ref Fold (fold vs CFI-HSA wild type) [2]: 0.42 | iC3b Screen Ref Fold (fold of CFI-HSA wild type) [3]: 0.11 | iC3b Screen Ref Fold (fold vs CFI-HSA wild type) [3]: 1.34 | C4b Screen Ref Fold (fold of CFI-HSA wild type) [10]: 2.86 | C3b cleavage, % Activity [4]: 105% | C3b cleavage rate, kmut/kwt [5]: 1

CFI-HSA variant S250A (enzyme)
C4b Screen Ref Fold (fold vs CFI-HSA wild type) [2]: 0.07 | iC3b Screen Ref Fold (fold vs CFI-HSA wild type) [3]: 0.38 | C3b cleavage, % Activity [4]: 82%

CFI-HSA (E416A; D425R; E457G; N531G variant) (enzyme)
Fold-decrease EC50 (iC3b) vs. CFI WT [9]: 8.03 fold

CFI-HSA variant E457G; E461Q; N531G with hCR1; CCP15; CCP16; CCP17 C-terminal fusion (enzyme)
C4c No Cofactor EC50 (C4b cleavage, C4c ELISA) [1]: 77.6 nM
